Test results from patent publication US20250250335A1.
“And” between values parts separate entries of the source, which are not always exact repeats. Equal entries are not always repeated.

Target: T1, mouse CEACAM5 (mouse) (UniProt Q3UKK2)
T1 sequence (looked up): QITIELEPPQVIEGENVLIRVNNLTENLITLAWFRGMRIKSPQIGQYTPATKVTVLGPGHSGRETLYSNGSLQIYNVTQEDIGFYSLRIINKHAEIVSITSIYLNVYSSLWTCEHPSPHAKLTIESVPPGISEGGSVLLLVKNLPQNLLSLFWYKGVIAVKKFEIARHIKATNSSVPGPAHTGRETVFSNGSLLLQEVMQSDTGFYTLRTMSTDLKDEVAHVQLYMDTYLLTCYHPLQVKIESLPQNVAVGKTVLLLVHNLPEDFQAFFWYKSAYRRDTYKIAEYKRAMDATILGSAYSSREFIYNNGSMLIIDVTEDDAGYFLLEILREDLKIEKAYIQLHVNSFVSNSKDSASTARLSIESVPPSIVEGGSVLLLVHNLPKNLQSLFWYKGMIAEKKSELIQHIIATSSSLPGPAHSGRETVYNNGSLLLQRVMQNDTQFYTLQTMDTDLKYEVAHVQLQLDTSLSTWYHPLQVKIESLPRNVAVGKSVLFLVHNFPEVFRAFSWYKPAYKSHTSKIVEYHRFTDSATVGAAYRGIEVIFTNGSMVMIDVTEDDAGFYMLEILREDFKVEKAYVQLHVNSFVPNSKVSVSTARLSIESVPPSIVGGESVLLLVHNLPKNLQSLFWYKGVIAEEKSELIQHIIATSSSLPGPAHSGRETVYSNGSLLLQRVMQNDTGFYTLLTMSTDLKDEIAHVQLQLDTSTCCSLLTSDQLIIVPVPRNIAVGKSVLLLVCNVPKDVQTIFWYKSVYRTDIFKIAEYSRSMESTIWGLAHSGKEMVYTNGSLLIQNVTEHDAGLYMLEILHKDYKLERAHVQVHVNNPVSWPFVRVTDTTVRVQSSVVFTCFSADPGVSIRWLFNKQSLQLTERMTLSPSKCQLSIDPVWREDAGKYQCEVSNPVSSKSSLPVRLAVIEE
Experiment: ELISA on coated protein, OD450

B1: Antibody 7 (antibody, V domains shown)
VH: QIQLVQSGPELKKPGETVKISCKASGYTFTDYGMNWVKQAPGKGLKWMGWINTYTGEPTYPDDFKGRFAFSLETSATTAYLQINNLKNEDTATYFCSRGDLLVRLDNWGQGTTLTVSS
VL: DIQMTQSPSSLSASLGGKVTITCKASQDINKYISWYQHKPGKGPRLLIHYTSTLQSGIPSRFSGSGSGRDYSFSISNLEPEDIATYYCLQYDYLRTFGGGTKLEIK
- OD: 0.31 OD and 0.24 OD
